Results as given in patent publication US9228015B2, “Nogo receptor antagonists and methods of increasing neurite outgrowth” (Biogen Idec MA Inc., priority 2006, dated 2016).

B1: sNogoR310: soluble Nogo receptor-1 polypeptide, residues 26-310 of SEQ ID NOs: 7 and 9 or 27-310 of SEQ ID NO: 9; mouse form in transgenic mice (protein, listed as Homo sapiens)
chain: PCPGACVCYNEPKVTTSCPQQGLQAVPVGIPAASQRIFLHGNRISHVPAASFRACRNLTILWLHSNVLARIDAAAFTGLALLEQLDLSDNAQLRSVDPATFHGLGRLHTLHLDRCGLQELGPGLFRGLAALQYLYLQDNALQALPDDTFRDLGNLTHLFLHGNRISSVPERAFRGLHSLDRLLLHQNRVAHVHPHAFRDLGRLMTLYLFANNLSALPTEALAPLRALQYLRLNDNPWVCDCRARPLWAWLQKFRGSSSEVPCSLPQRLAGRDLKRLAANDLQGCA
B2: sNogoR344-Fc: fusion protein of residues 26-344 of rat Nogo receptor-1 and hinge and Fc region of rat IgG1 (protein)
chain: PCPGACVCYNEPKVTTSRPQQGLQAVPAGIPASSQRIFLHGNRISYVPAASFQSCRNLTILWLHSNALAGIDAAAFTGLTLLEQLDLSDNAQLRVVDPTTFRGLGHLHTLHLDRCGLQELGPGLFRGLAALQYLYLQDNNLQALPDNTFRDLGNLTHLFLHGNRIPSVPEHAFRGLHSLDRLLLHQNHVARVHPHAFRDLGRLMTLYLFANNLSMLPAEVLVPLRSLQYLRLNDNPWVCDCRARPLWAWLQKFRGSSSGVPSNLPQRLAGRDLKRLATSDLEGCAVASGPFRPFQTNQLTDEELLGLPKCCQPDAADKA
modifications: left off: a dimerising Fc or GST
notes: fusion protein of residues 26-344 of rat Nogo receptor-1 and hinge and Fc region of rat IgG1

Key:
[1] = system: NogoA, NogoB, NogoC, MAG and OM-gp binding to Nogo receptor-1; assay: Soluble Nogo receptors block ligand binding to Nogo receptor-1
[2] = system: DRG neurons, myelin-mediated inhibition of neurite outgrowth; assay: Neurite outgrowth assay, P3-4 rat DRG neurons, myelin mixed with test protein (Example 10); assay type: cell-based; conditions: mixed with CNS myelin, FIGS. 9-11
Method: Lab-Tek® culture slides (4 wells) were coated with 0.1 mg/ml poly-D-lysine (Sigma®). CNS myelin alone or mixed with sNogoR310, sNogoR310-Fc fusion protein, mAb 5B10 or control PBS were separately spotted as 3 μl drops. Fluorescent microspheres (Polysciences) were added to the myelin/PBS to allow later identification of the drops (Grandpre et al., Nature 403:439-444 (2000)). Lab-Tek® slides were then rinsed and coated with 10 μg/ml laminin (Gibco™).
Dorsal root ganglions (DRG's) from P3-4 Sprague Dawley rat pups were dissociated with 1 mg/ml collagenase type 1 (Worthington), triturated with fire-polished Pasteur pipettes pre-plated to enrich in neuronal cells and finally plated at 23,000 cells/well on the pre-coated Labtek culture slides. The culture medium was F12 containing 5% heat inactivated donor horse serum, 5% heat inactivated fetal bovine serum and 50 ng/ml mNGF and incubated at 37° C. and 5% CO2 for 6 hours.
Slides were fixed for 20 minutes with 4% paraformaldehyde containing 20% sucrose and stained for the neuronal marker anti beta-III-tubulin (Covance TUJ1) diluted 1:500. As secondary antibody anti-mouse Alexa Fluor® 594 (Molecular Probes) was diluted 1:300 and slides were coverslipped with Gel/Mount™ (Biømeda™). 5× digital images were acquired with OpenLab™ software and analyzed by using the MetaMorph® software for quantification of neurite outgrowth.

[3] = system: chick neurons; assay: Neurite outgrowth assay using chick neurons; assay type: cell-based
[4] = system: mice with dorsal over-hemisection injury; assay: gfap::sNogoR310 transgenic mice, dorsal over-hemisection: axon tracing and serotonin fiber analysis; assay type: in vivo, mouse
From the text: We cloned the mouse sNogoR310 cDNA (corresponding to amino acids 1-310 of the Nogo receptor-1) into the Nod site of the C-3123 vector. In this vector, sNogoR310 expression is under the control of the glial fibrillary acidic protein (gfap) gene regulatory elements, which allow high level expression with enhanced secretion from reactive astrocytes at site of injury. We digested the resulting vector sequentially with AatII and SfiI and isolated the gfap::sNogoR310 construct on a 3.4 kb fragment. We microinjected this fragment into embryos to generate transgenic mice. We verified by PCR that the transgene had integrated and identified five founder lines. We crossed heterozygous males of the two founder lines with the highest expression levels to female C57BL/6J mice. We confirmed that the GFAP-positive cells express and secrete sNogoR310 in heterozygous transgenic mice by Western blot analysis using antibody raised against Nogo receptor-1.
We deeply anesthetized adult female heterozygous transgenic or littermate WT mice (10-16 weeks of age) and performed a complete laminectomy, fully exposing the dorsal part of spinal cord at T6 and T7 levels. We performed a dorsal over-hemisection at T6 with a 30-gauge needle and a pair of microscissors to completely sever the dorsal and dorsolateral corticospinal tracts (CSTs). We passed a marked needle across the dorsal part of the spinal cord several times to assure that the lesion was at a depth of 1.0 mm. We sutured the muscle layers over the laminectomies and closed the skin on the back with surgical staples. To trace the corticospinal tracts, we made a burr hole overlying cerebral cortex on the right side into the skull 14 days after spinal cord injury. We applied the tracer BDA (MW 10,000, 10% in PBS) (Molecular Probes, Eugene, Oreg.) to 4 injection sites at a depth of 0.7 mm from the cortical surface, Four weeks after injury, the mice were perfused transcardially with PBS, followed by 4% paraformaldehyde.
We investigated the integrity of descending corticospinal tracts (CST) by injecting anterograde tracer biotin dextran amine (BDA) into the right motor cortex as described in Li and Strittmatter, J. Neurosci. 23:4219-27 (2003). In littermate WT mice, the prominent dorsal CST (dCST) is tightly bundled rostral to the lesion, and a few dorsolateral CST fibers are visible ipsilaterally. A small number of BDA-labeled short collateral sprouts project into gray matter, particularly in the ventral cord, but the sprouting is largely confined to the side of the cord contralateral to the tracer injection. However, the sections rostral to dorsal hemisection from injured sNogoR310 transgenic mice indicate a quite different BDA labeling pattern. A high density of BDA-labeled CST fibers are observed outside of prominent dCST in all the transgenic mice from line Tg08 or line Tg01. Ectopic fibers extend throughout the gray matter area, and some fibers reach into lateral and dorsolateral white matter. Several fibers (4-12 sprouts per transverse section) are seen on the opposite side of the spinal cord (ipsilateral to the tracer injection site). Micro densitometric measurement of the collateral sprouts indicates approximately a tenfold increase in sprouting density in sNogoR310 transgenic mice. […]

[5] = system: mice with dorsal over-hemisection injury; assay: gfap::sNogoR310 transgenic mice, dorsal over-hemisection: behavioral tests; assay type: in vivo, mouse
From the text: The Basso-Beattie-Bresnahan (BBB) locomotor rating scale (Basso et al., Neurotrauma 13:343-359 (1996)), the inclined plane test and the inclined grid walking test (Li and Strittmatter, J Neurosci. 23:4219-27 (2003)) were monitored in rats and mice after injury. For the inclined plane test, we measured the maximal angle to which a 50 cm×60 cm board could be angled for 5 sec without the mouse sliding off. For inclined grid walking, the mice were trained to climb a wire grid (35 cm long with 2.54 cm squares) at a slope of 45 degrees. The number of instances in which the hindpaw dropped below the grid plane was scored for each excursion from bottom to top. For the rat behavioral testing, BBB locomotor scale, grid walking and footprint analysis were performed. For grid walking, the rats were trained to walk on a wire grid (70 cm long with 2.54 an squares), and the number of instances in which the hindpaw dropped below the grid plane was counted. For footprint analysis, the walking patterns of rat hindpaws were recorded with ink during a continuous locomotion across a 90 cm runway, and stride length on each side and stride width were calculated (Metz et al., Brain Res. 883:165-177 (2000)). All of these behavioral tests were performed by at least two individuals. Throughout the surgery, behavioral testing and histologic analysis, researchers were blind to the identity of the compound in the minipump.
We deeply anesthetized adult female heterozygous transgenic or littermate WT mice (10-16 weeks of age) and performed a complete laminectomy, fully exposing the dorsal part of spinal cord at T6 and T7 levels. We performed a dorsal over-hemisection at T6 with a 30-gauge needle and a pair of microscissors to completely sever the dorsal and dorsolateral corticospinal tracts (CSTs). We passed a marked needle across the dorsal part of the spinal cord several times to assure that the lesion was at a depth of 1.0 mm. We sutured the muscle layers over the laminectomies and closed the skin on the back with surgical staples. […]

[6] = system: P6 DRG neurons; assay: Neuro-protection assay, P6-7 rat DRG neurons with or without laminin; assay type: cell-based
Method: We also tested the neuro-protective effect of soluble Nogo receptors by performing experiments with cells grown in the presence and absence of laminin. Neuronal cell growth in media without laminin is poor and models neuronal stress conditions.
DRG's were dissected from post-natal day 6-7 rat pups (P6-7), dissociated into single cells and plated on 96-well plates pre-coated with poly-D-lysine as described above. In some wells 2 μg/ml laminin was added for 2-3 hours and rinsed before the cells were plated. After an 18-20 h incubation the plates were fixed with 4% para-formaldehyde, stained with rabbit anti-Beta-III-tubulin antibody diluted 1:500 (Covance®) and anti-HuC/D diluted 1:100 (Molecular Probes), and fluorescent secondary antibodies (Molecular Probes) were added at 1:200 dilution. The ArrayScan® II (Cellomics®) was used to capture 5× digital images and to quantify neurite outgrowth as average neurite outgrowth/neuron per well, by using the Neurite outgrowth application. Nine 5× images from 3 wells/condition were analyzed.
(§1) sNogoR344-Fc or rat IgG were added in solution to P6-7 DRG neurons and to differentiated Neuroscreen™ cells at the time of plating.

[7] = system: Neuroscreen cells (sub-clone of PC12 cells); assay: Neuro-protection assay, differentiated Neuroscreen cells with or without laminin; assay type: cell-based; conditions: same concentrations, absence of laminin
Method: In some experiments, a sub-clone of PC12 cells (Neuroscreen™) was used (Cellomics®). The Neuroscreen™ cells were pre-differentiated for 7 days with 200 ng/ml NGF, detached and replated on 96-well plates pre-coated with poly-D-lysine. In some wells 5 μg/ml laminin was added for 2-3 hours and rinsed before the cells were plated. After 2 days incubation the plates were fixed with 4% paraformaldehyde, stained with rabbit anti-Beta-III-tubulin antibody diluted 1:500 (Covance®) and Hoechst (nuclear stain). The ArrayScan® II was used to quantify neurite outgrowth as in the DRG cells.
as §1

| block of binding of NogoA, NogoB, NogoC, MAG and OM-gp to Nogo receptor-1 [1] | Molecule | protection of DRG neurons from myelin-mediated inhibition of neurite outgrowth [2] | protection in similar assay using chick neurons [3] | BDA-labeled regenerating fibers coursing in the rostral-caudal axis ([4]; any level 1-4 mm caudal to the lesion, each transgenic mouse) | fibers on the opposite side of the spinal cord (ipsilateral to the tracer injection site) ([4]; rostral to dorsal hemisection, transgenic mice) | CST sprouting ([4]; secreted from astrocytes in transgenic mice) | total length of serotonin fibers in the ventral horn of caudal spinal cord ([4]; transgenic vs WT group) | increase in collateral sprouting density (micro densitometric measurement) ([4]; transgenic vs WT mice) | sustainable angle on inclined plane ([5]; days 7-28 after injury vs control) | BBB scores ([5]; lines Tg08 and Tg01 vs control, 7-28 days) | inclined grid climbing errors ([5]; post-injury, FIG. 13D) | neuro-protective effect ([6]; 1 μM and 10 μM, absence of laminin) | quantification of neurite outgrowth ([6]; absence of laminin) | effect on DRG neurons growing on a laminin substrate ([6]; same concentrations, laminin substrate) | neuro-protective effect [7] |
| --- | --- | --- | --- | --- | --- | --- | --- | --- | --- | --- | --- | --- | --- | --- | --- |
| block | B1 | protected | protective | 5-15 | 4-12 sprouts per transverse section | induces CST sprouting | much greater number | tenfold | significantly greater | significantly higher | progressive improvement | – | – | – | – |
| – | B2 | – | – | – | – | – | – | – | – | – | – | observed | dose-dependent increase | did not produce any unusual effect | seen |
